Test results: US20240124535A1 (Molecular Partners, published 2024)
Like-named read-outs stand apart in the source and are kept apart here.

Assays:
human serum albumin [1] = molecular target: T1, human serum albumin (human, UniProt P02768 25-609); experiment: SPR, ProteOn system (BioRad), in PBS
Protocol: Affinity of proteins of Example 2 to human serum albumin were determined by SPR measurements using a ProteOn system (BioRad) in PBS according to standard procedures known to the person skilled in the art.

human serum albumin [2] = molecular target: T1, human serum albumin; experiment: ELISA, serum albumin immobilized on plate, in PBST-C
Protocol: (§1) Samples of proteins of Example 2 were subjected to ELISA serum albumin cross-reactivity analyses as described in WO2016156596. 100 μl of 20 nM serum albumin in PBS per well were immobilized in a Maxisorp plate (Nunc, Denmark) overnight at 4° C. After washing 5 times with 300 μl PBST (PBS supplemented with 0.1% Tween 20), the wells were blocked with 300 μl PBST-C(PBST supplemented with 0.25% casein) for 2 h at room temperature with shaking at 450 rpm on a Titramax 1000 shaker (Heidolph, Germany). After washing 5 times as described above, 100 μl/well or 50 μl/well proteins #2, #3, or #4 (concentrations ranging from 100 nM to 0.01 pM for each protein) in PBST-C were applied and incubated for 2 h at room temperature with shaking at 450 rpm. After washing 5 times as described above, binding of the proteins was detected using 100 μl rabbit anti-designed ankyrin repeat domain monoclonal antibody in PBST-C for 1 h at room temperature with shaking at 450 rpm. After washing 5 times as described above, bound anti-designed ankyrin repeat domain antibody was detected using 100 μl/well goat anti-rabbit IgG-HRP conjugate in PBST-C for 1 h at room temperature with shaking at 450 rpm. After washing 5 times as described above, the ELISA was then developed using 100 μl BM soluble blue POD substrate (Roche, Switzerland), diluted 1:4 in water. The reaction was stopped after 5 min using 100 μl 1 M H2504. The OD (OD 450 nm-OD 620 nm) was then recorded. EC 50 values were determined using Graph Pad Prism (Table 3). […] The measured EC₅₀ values for cynomolgus monkey serum albumin binding are below 20 nM for proteins #2, #3, and #4.

[3] = molecular target: T2, cynomolgus monkey serum albumin (cynomolgus monkey (Macaca fascicularis), UniProt A2V9Z4 25-608); experiment: as above
Protocol: as §1

mouse serum albumin [4] = molecular target: T3, mouse serum albumin (mouse, UniProt P07724 25-608); experiment: as above
Protocol: as §1

human serum albumin [5] = molecular target: T1, human serum albumin; experiment: as above; remark: listed apart in the source
Protocol: as §1

[6] = molecular target: T2, cynomolgus monkey serum albumin; experiment: as above; remark: listed apart in the source
Protocol: as §1

mouse serum albumin [7] = molecular target: T3, mouse serum albumin; experiment: as above; remark: listed apart in the source
Protocol: as §1

T1 sequence (P02768 25-609 limits assumed): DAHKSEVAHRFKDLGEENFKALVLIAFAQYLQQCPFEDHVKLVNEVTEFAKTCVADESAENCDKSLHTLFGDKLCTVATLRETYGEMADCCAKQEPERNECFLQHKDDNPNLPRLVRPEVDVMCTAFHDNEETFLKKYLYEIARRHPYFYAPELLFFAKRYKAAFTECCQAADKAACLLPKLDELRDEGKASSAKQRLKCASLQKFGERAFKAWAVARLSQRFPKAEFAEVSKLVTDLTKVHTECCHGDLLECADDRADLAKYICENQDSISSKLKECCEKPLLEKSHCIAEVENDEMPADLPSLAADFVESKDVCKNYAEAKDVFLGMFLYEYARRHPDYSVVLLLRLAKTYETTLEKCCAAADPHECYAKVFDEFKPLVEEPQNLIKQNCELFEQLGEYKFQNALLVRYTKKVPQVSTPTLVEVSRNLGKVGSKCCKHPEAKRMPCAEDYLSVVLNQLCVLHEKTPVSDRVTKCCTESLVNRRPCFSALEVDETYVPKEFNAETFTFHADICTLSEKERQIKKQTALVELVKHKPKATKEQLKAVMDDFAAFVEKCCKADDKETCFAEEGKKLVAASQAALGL
T2 sequence (A2V9Z4 25-608 limits assumed): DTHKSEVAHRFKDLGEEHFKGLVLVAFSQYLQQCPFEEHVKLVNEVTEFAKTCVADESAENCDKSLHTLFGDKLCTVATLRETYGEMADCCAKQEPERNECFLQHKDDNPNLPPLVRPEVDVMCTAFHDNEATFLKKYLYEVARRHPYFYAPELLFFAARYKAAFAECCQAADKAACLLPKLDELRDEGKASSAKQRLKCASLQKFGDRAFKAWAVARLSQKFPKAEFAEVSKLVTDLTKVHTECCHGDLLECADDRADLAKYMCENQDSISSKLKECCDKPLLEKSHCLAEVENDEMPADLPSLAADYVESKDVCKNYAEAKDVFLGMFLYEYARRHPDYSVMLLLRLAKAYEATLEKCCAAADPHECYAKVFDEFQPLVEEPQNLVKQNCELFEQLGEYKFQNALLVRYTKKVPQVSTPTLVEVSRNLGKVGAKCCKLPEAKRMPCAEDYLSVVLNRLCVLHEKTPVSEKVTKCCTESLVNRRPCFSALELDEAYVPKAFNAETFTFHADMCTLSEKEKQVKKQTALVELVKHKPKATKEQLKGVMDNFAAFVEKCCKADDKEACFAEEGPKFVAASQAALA

Binder | Kd (human serum albumin [1]) [nM] | EC50 (human serum albumin [2]) [nM] | EC50 [3] [nM] | EC50 (mouse serum albumin [4]) [nM] | EC50 (human serum albumin [5]) [nM] | EC50 [6] [nM] | EC50 (mouse serum albumin [7]) [nM]
Protein #2 (SEQ ID NO: 2 with a His-tag (SEQ ID NO: 1) fused to its N-terminus) (designed binder) MRGSHHHHHHGSDLGKKLLEAARAGQDDEVRELLKAGADVNAKDYFSHTPLHLAARNGHLKIVEVLLKAGADVNAKDFAGKTPLHLAANEGHLEIVEVLLKAGADVNAQDIFGKTPADIAADAGHEDIAEVLQKAA | 31.1 | < 1 | < 20 | < 30 | 0.32 | 2.8 | 9.6
Protein #3 (SEQ ID NO: 3 with a His-tag (SEQ ID NO: 1) fused to its N-terminus) (designed binder) MRGSHHHHHHGSDLGKKLLEAARAGQDDEVRELLKAGADVNAKDYFSHTPLHLAARNGHLKIVEVLLKAGADVNAKDFAGKTPLHLAAADGHLEIVEVLLKAGADVNAQDIFGKTPADIAADAGHEDIAEVLQKAA | 35.5 | < 1 | < 20 | < 30 | 0.64 | 6.8 | 14.7
Protein #4 (SEQ ID NO: 4 with a His-tag (SEQ ID NO: 1) fused to its N-terminus) (designed binder) MRGSHHHHHHGSDLGKKLLEAARAGQDDEVRELLKAGADVNAKDYFSHTPLHLAARNGHLKIVEVLLKAGADVNAKDFAGKTPLHLAADAGHLEIVEVLLKAGADVNAQDIFGKTPADIAADAGHEDIAEVLQKAA | 34.4 | < 1 | < 20 | < 30 | 0.84 | 13.1 | 24
